In PMC3032679 (Journal of Translational Medicine, 2011):
Ends that are not written are not given here.

Tests used:
human recombinant Hsp90α [1] = biological target: T1, human recombinant Hsp90α (human, UniProt P07900 1-732); experiment: SPR; competition; Hsp90 or Hsp70 (1 μM) preincubated with TPR peptide (14, 140 or 700 μM) passed over Hop, FKBP5 or PP5 immobilised on CM5 chip; signal without peptide = 100% binding; 25°C, HBS-EP buffer pH 7.4; conditions: both partners purified
T1 construct: Heat shock protein 90 alpha (Hsp90α), human, recombinant; also called heat shock protein 90; source: bought: Stressgen Bioreagents

human recombinant Hsp90α [2] = biological target: T1, human recombinant Hsp90α; experiment: SPR; Biacore 3000; biotin-TPR peptide immobilised on streptavidin (SA) chip; Hsp90 or Hsp70 (0.3, 1 or 2 μM) as analyte, 30 μl/min, 25°C, HBS-EP buffer pH 7.4; conditions: both partners purified

| binding result (human recombinant Hsp90α [1]) | Kd (human recombinant Hsp90α [2]) | Binder |
| --- | --- | --- |
| binds | – | human recombinant PP5 (natural protein, UniProt P53041 1-499, looked up, PP5 (protein phosphatase 5), human, recombinant; Abnova recombinant proteins often carry a GST tag (surmise); source: bought: Abnova) MAMAEGERTECAEPPRDEPPADGALKRAEELKTQANDYFKAKDYENAIKFYSQAIELNPSNAIYYGNRSLAYLRTECYGYALGDATRAIELDKKYIKGYYRRAASNMALGKFRAALRDYETVVKVKPHDKDAKMKYQECNKIVKQKAFERAIAGDEHKRSVVDSLDIESMTIEDEYSGPKLEDGKVTISFMKELMQWYKDQKKLHRKCAYQILVQVKEVLSKLSTLVETTLKETEKITVCGDTHGQFYDLLNIFELNGLPSETNPYIFNGDFVDRGSFSVEVILTLFGFKLLYPDHFHLLRGNHETDNMNQIYGFEGEVKAKYTAQMYELFSEVFEWLPLAQCINGKVLIMHGGLFSEDGVTLDDIRKIERNRQPPDSGPMCDLLWSDPQPQNGRSISKRGVSCQFGPDVTKAFLEENNLDYIIRSHEVKAEGYEVAHGGRCVTVFSAPNYCDQMGNKASYIHLQGSDLRPQFHQFTAVPHPNVKPMAYANTLLQLGMM |
| – | 1420 nM | KAYARIGNSYFK (also: biotin-conjugated, position not given here, Immobilised on a streptavidin sensor chip by its biotin; also called biotin-TPR; immobilized TPR peptide; source: synthetic peptide) [Biotin-conjugated TPR peptide] |
| binds | – | KAYARIGNSYFK (also called designed TPR peptide; source: synthetic peptide) [TPR peptide (KAYARIGNSYFK)] |
